Publication PMC5421877, “SOCS3 inhibits the pathological effects of IL-22 in non-melanoma skin tumor-derived keratinocytes” (Oncotarget, 2017)

Experiments:
Tyk2 phosphorylation = Tyk2 phosphorylation in healthy keratinocytes (IL-22); assay type: cell-based, human; details: IL-22 10 min, no peptide, n = 3
Protocol: 2nd- or 3rd-passage cultures of human keratinocyte strains (n = 5), obtained as previously described, were grown in serum-free Keratinocyte Growth Medium (KGM; Clonetics, Walkersville, MD, USA), for 3–5 days (at 60–80% confluence) before performing experiments. The HaCaT human keratinocyte cell line was a gift from N.E. Fusenig (Deutsches Krebsforschungszentrum, Heidelberg, Germany), and was grown in Dulbecco modified Eagle medium (DMEM; Biochrom, Cambridge, UK) supplemented with 10% Fetalclone II serum (HyClone Laboratories, South Logan, UT, USA). SCC-derived cell lines, CAL27-and CAL33 (American Tissue Culture Collection, ATCC, Milan, Italy), SCC12, SCC13 and SCC-15 (kindly provided by Dr. A. Marconi, University of Modena e Reggio Emilia, Italy), as well as M77015-08 and TE354.T (ATCC) were grown in DMEM (Biocrhom AG, Cambridge, UK) with 10% fetal bovine serum (HyClone Laboratories). Primary cultures of healthy keratinocytes and skin tumor cell lines were treated with peptides (KIR, KIR-ESS, Ctrl1 and Ctrl2) resuspended in 1X PBS for 1 h and, then, stimulated with 50 ng/ml IL-22 or 200 U/ml IFN-γ (R&D Systems, Minneapolis, MN, USA) in keratinocyte basal medium (KBM, Clonetics) or DMEM, respectively.
Total protein extracts were prepared as previously reported. Immunoprecipitation and immunoblotting were performed accordingly to standard procedures. […]

[1] = tested on: SOCS3 expression in healthy keratinocytes; test: SOCS3 mRNA and protein induction in healthy keratinocytes; assay type: cell-based, human
Protocol: Figure 1 IL-22 induces SOCS3, which limits STAT3 and Erk1/2 activation (A) Keratinocyte cultures (n = 3) were stimulated with IL-22 or not for 10 min and protein lysates were subjected to immunoprecipitation and WB analyses for basal and phospho-IL-22R1, Tyk2 or Jak1. (B) WB of time-course experiments were performed on keratinocyte cultures (n = 3) to evaluate basal STAT3, Erk1/2 and MEK or phosphor-STAT3 (Tyr705 and Ser 727), phosphor-Erk1/2 and phospho-MEK. Anti-β-actin Ab was used to normalize sample loading. (C) SOCS mRNA and protein levels were detected by real-time PCR or WB analyses in cultured keratinocytes prepared from healthy skin (n = 3) left untreated or stimulated with IL-22 for the indicated time periods and normalized with β-actin values. (D) HaCaT cells stably transfected with myc-tagged SOCS1 (n = 4), SOCS2 (n = 2) and SOCS3 (n = 4) genes or control plasmids (mock, n = 3) were left untreated or stimulated with IL-22 for 15 min or 3 h and lysates subjected to WB with anti-phospho STAT3 (Tyr705), -phospho STAT3 (Ser727), -STAT3, -phospho Erk, -Erk, -c-myc and -β-actin Abs, as indicated. (E) Keratinocyte cultures were transiently transfected with siRNA specific for SOCS3 or control siRNA (NC). After 48-h transfection, cells were stimulated with IL-22 or not for the indicated time periods. In RNA interference experiments, data were obtained by three independent experiments, and SOCS3 depletion was assessed by real-time PCR and WB. […] Data are expressed as ratio of densitometric intensity (D. I.) of phosphorylated and unphosphorylated STAT3 and Erk1/2 proteins. p < 0.05 (*) values were considered significant.
Figure 4 SOCS3 and SOCS1 are poorly expressed in the epidermis of NMSC lesions and are not induced in transformed keratinocytes by IL-22 (A) Immunohistochemistry for SOCS3 and SOCS1 (red staining) was performed respectively on frozen or paraffin-embedded sections from biopsies of healthy skin (i), NLS (ii, iii) and LS (iv, v) areas of BCC and SCC, specimens. Psoriatic skin biopsies were also analyzed (vi). Sections were counterstained with Mayer's H&E and were visually evaluated by an pathologist experienced in dermatology. […] (B) Graphs show SOCS3 and SOCS1 mRNA levels which were detected by real-time PCR analysis in cultured SCC (CAL27 and CAL33) and BCC (M77015) skin tumor lines left untreated or stimulated with IL-22 or IFN-γ for 3 h and normalized for β-actin mRNA expression levels. […] SOCS1 was detected by IP using a specific anti-SOCS1 Ab, whereas SOCS3 by WB with an anti-SOCS3 Ab. […] Densitometric intensity (D.I.) of SOCS1 or SOCS3/β-actin was calculated from three independent experiments and numerically expressed as D. I. Ratio. *p < 0.01; **p < 0.05. […] SOCS3 and phospho-Tyr STAT3 levels were detected by WB and normalized to β-actin levels. […]

B1: IL-22: cytokine stimulus, R&D Systems (protein, UniProt Q9GZX6 34-179, looked up)
Interleukin-22: APISSHCRLDKSNFQQPYITNRTFMLAKEASLADNNTDVRLIGEKLFHGVSMSERCYLMKQVLNFTLEEVLFPQSDRFQPYMQEVVPFLARLSNRLSTCHIEGDDLHIQRNVQKLKDTVKKLGESGEIKAIGELDLLFMSLRNACI
- Tyk2 phosphorylation induced (Tyk2 phosphorylation): induced molecular cascade implicating phosphorylation of IL-22R1, Tyk2 and Jak1
- time of peak SOCS3 protein induction ([1]; IL-22 time course, WB, n = 3): 3 h
- time of peak SOCS3 mRNA induction ([1]; IL-22 time course, real-time PCR, n = 3): 1 h
- SOCS3 mRNA and protein expression ([1]; healthy keratinocytes, 3 h mRNA, 6 h protein): significantly induced mRNA and protein expression of SOCS3 in healthy keratinocytes
